Data reported in US9605283B2, “Microorganism modified for the production of 1,3-propanediol” (INSTITUT NATIONAL DES SCIENCES APPLIQUÉES, priority 2012, dated 2017).
Residue numbers refer to the chain shown, from its start. In names and notes the source's numbering stands.

B1: Zymomonas mobilis pyruvate decarboxylase Zm-Pdc, wild type, SEQ ID No. 128 (Zymomonas mobilis subsp. mobilis ZM4 = ATCC 31821) (protein)
chain: MSYTVGTYLAERLVQIGLKHHFAVAGDYNLVLLDNLLLNKNMEQVYCCNELNCGFSAEGYARAKGAAAAVVTYSVGALSAFDAIGGAYAENLPVILISGAPNNNDHAAGHVLHHALGKTDYHYQLEMAKNITAAAEAIYTPEEAPAKIDHVIKTALREKKPVYLEIACNIASMPCAAPGPASALFNDEASDEASLNAAVEETLKFIANRDKVAVLVGSKLRAAGAEEAAVKFADALGGAVATMAAAKSFFPEENPHYIGTSWGEVSYPGVEKTMKEADAVIALAPVFNDYSTTGWTDIPDPKKLVLAEPRSVVVNGIRFPSVHLKDYLTRLAQKVSKKTGALDFFKSLNAGELKKAAPADPSAPLVNAEIARQVEALLTPNTTVIAETGDSWFNAQRMKLPNGARVEYEMQWGHIGWSVPAAFGYAVGAPERRNILMVGDGSFQLTAQEVAQMVRLKLPVIIFLINNYGYTIEVMIHDGPYNNIKNWDYAGLMEVFNGNGGYDSGAGKGLKAKTGGELAEAIKVALANTDGPTLIECFIGREDCTEELVKWGKRVAAANSRKPVNKLL
notes: hexa-His (N); made in house; host or cells: E. coli BL21 (DE3) star
B2: Bacillus subtilis (L)-malate dehydrogenase Bs-Mdh, wild type, SEQ ID No. 126 (Bacillus subtilis subsp. subtilis str. 168) (protein)
chain: MGNTRKKVSVIGAGFTGATTAFLIAQKELADVVLVDIPQLENPTKGKALDMLEASPVQGFDAKITGTSNYEDTAGSDIVVITAGIARKPGMSRDDLVSTNEKIMRSVTQEIVKYSPDSIIVVLTNPVDAMTYAVYKESGFPKERVIGQSGVLDTARFRTFVAEELNLSVKDVTGFVLGGHGDDMVPLVRYSYAGGIPLETLIPKERIDAIVERTRKGGGEIVNLLGNGSAYYAPAASLTEMVEAILKDQRRVLPTIAYLEGEYGYEGIYLGVPTIVGGNGLEQIIELELTDYERAQLNKSVESVKNVMKVLS
notes: as for B1
B3: Bacillus subtilis malate dehydrogenase Bs-Mdh variant R87C, SEQ ID No. 154 (Bacillus subtilis subsp. subtilis str. 168; R87C) (protein)
chain: B2 chain with R87C
B4: Escherichia coli (L)-malate dehydrogenase Ec-Mdh, wild type, SEQ ID No. 124 (Escherichia coli K-12) (protein)
chain: MKVAVLGAAGGIGQALALLLKTQLPSGSELSLYDIAPVTPGVAVDLSHIPTAVKIKGFSGEDATPALEGADVVLISAGVARKPGMDRSDLFNVNAGIVKNLVQQVAKTCPKACIGIITNPVNTTVAIAAEVLKKAGVYDKNKLFGVTTLDIIRSNTFVAELKGKQPGEVEVPVIGGHSGVTILPLLSQVPGVSFTEQEVADLTKRIQNAGTEVVEAKAGGGSATLSMGQAAARFGLSLVRALQGEQGVVECAYVEGDGQYARFFSQPLLLGKNGVEERKSIGTLSAFEQNALEGMLDTLKKDIALGEEFVNK
B5: Escherichia coli malate dehydrogenase Ec-Mdh variant R81A I12V, SEQ ID No. 162 (Escherichia coli K-12; I12V/R81A) (protein)
chain: B4 chain with I12V, R81A
B6: Escherichia coli malate dehydrogenase Ec-Mdh variant R81A M85E I12V, SEQ ID No. 166 (Escherichia coli K-12; I12V/M85E/R81A) (protein)
chain: B4 chain with I12V, R81A, M85E
B7: Escherichia coli malate dehydrogenase Ec-Mdh variant R81A D86S, SEQ ID No. 170 (Escherichia coli K-12; D86S/R81A) (protein)
chain: B4 chain with R81A, D86S
B8: Escherichia coli malate dehydrogenase Ec-Mdh variant R81A M85Q, SEQ ID No. 158 (Escherichia coli K-12; M85Q/R81A) (protein)
chain: B4 chain with R81A, M85Q
B9: Escherichia coli malate dehydrogenase Ec-Mdh variant R81A M85Q I12V, SEQ ID No. 164 (Escherichia coli K-12; I12V/M85Q/R81A) (protein)
chain: B4 chain with I12V, R81A, M85Q
B10: Escherichia coli malate dehydrogenase Ec-Mdh variant R81A, SEQ ID No. 156 (Escherichia coli K-12; R81A) (protein)
chain: B4 chain with R81A
B11: Escherichia coli malate dehydrogenase Ec-Mdh variant R81A M85E, SEQ ID No. 160 (Escherichia coli K-12; M85E/R81A) (protein)
chain: B4 chain with R81A, M85E
B12: Escherichia coli membrane associated (L)-lactate dehydrogenase Ec-LldD, wild type, SEQ ID No. 122 (Escherichia coli K-12) (protein)
chain: MIISAASDYRAAAQRILPPFLFHYMDGGAYSEYTLRRNVEDLSEVALRQRILKNMSDLSLETTLFNEKLSMPVALAPVGLCGMYARRGEVQAAKAADAHGIPFTLSTVSVCPIEEVAPAIKRPMWFQLYVLRDRGFMRNALERAKAAGCSTLVFTVDMPTPGARYRDAHSGMSGPNAAMRRYLQAVTHPQWAWDVGLNGRPHDLGNISAYLGKPTGLEDYIGWLGNNFDPSISWKDLEWIRDFWDGPMVIKGILDPEDARDAVRFGADGIVVSNHGGRQLDGVLSSARALPAIADAVKGDIAILADSGIRNGLDVVRMIALGADTVLLGRAFLYALATAGQAGVANLLNLIEKEMKVAMTLTGAKSISEITQDSLVQGLGKELPAALAPMAKGNAA
notes: as for B1
B13: Escherichia coli (L)-lactate dehydrogenase Ec-LldD variant V108C, SEQ ID No. 174 (Escherichia coli K-12; V108C) (protein)
chain: B12 chain with V108C
notes: DCIP assay
B14: Lactococcus lactis (L)-lactate dehydrogenase Ll-LdhA, wild type, SEQ ID No. 120 (Lactococcus lactis subsp. lactis Il1403) (protein)
chain: MADKQRKKVILVGDGAVGSSYAFALVNQGIAQELGIVDLFKEKTQGDAEDLSHALAFTSPKKIYSADYSDASDADLVVLTSGAPQKPGETRLDLVEKNLRITKDVVTKIVASGFKGIFLVAANPVDILTYATWKFSGFPKNRVVGSGTSLDTARFRQALAEKVDVDARSIHAYIMGEHGDSEFAVWSHANVAGVKLEQWFQENDYLNEAEIVELFESVRDAAYSIIAKKGATFYGVAVALARITKAILDDEHAVLPVSVFQDGQYGVSDCYLGQPAVVGAEGVVNPIHIPLNDAEMQKMEASGAQLKAIIDEAFAKEEFASAVKN

What was measured:
[1] = substrate: CC(=O)C(=O)O; assay: OHB decarboxylase / pyruvate decarboxylase kinetics, Zm-Pdc wild type; format: biochemical, Zymomonas mobilis; settings: other: 37° C., pH 7, coupled to yeast alcohol dehydrogenase/NADH
Source text: (§1) Genomic DNAs of S. cerevisiae BY4741, and Z. mobilis (Lindner) Kluyver and van Niel (ATCC® 31821) were used as the template. […] Ligation products were transformed into competent E. coli DH5α cells (NEB). […] The corresponding protein sequences are represented by SEQ No. 208 and SEQ ID No. 208 128 respectively.
(§2) The plasmids were used to transform E. coli BL21 (DE3) star cells and the enzymes carrying an N-terminal hexa-His tag were expressed and purified as described in Example 1. Decarboxylase activity on 2-oxo-4-hydroxybutyrate (OHB), pyruvate (Sigma), and 4-methyl-2-oxovaleric acid (Sigma) was quantified.
(§3) OHB decarboxylase activity was assayed by coupling the decarboxylase activity to the NADPH-dependent reduction of the released 3-hydroxypropanal by purified aldehyde reductase, YqhD, from E. coli. The decarboxylation of pyruvate was coupled to the NADH-dependent reduction of acetaldehyde catalysed by yeast alcohol dehydrogenase. Branched-chain alpha-ketoacid decarboxylase activity was measured on 4-methyl-2-oxovaleric acid by coupling to the NADH-dependent reduction of 3-methylbutanal catalysed by horse liver alcohol dehydrogenase. […] Reactions were started by adding 20 mM 2-oxo-4-hydroxybutyrate (OHB), 10 mM 4-methyl-2-oxovaleric acid (MOV), or 5 mM pyruvate.

[2] = substrate: O=C(O)C(=O)CCO; assay: as above; format: biochemical, Zymomonas mobilis; settings: other: 37° C., pH 7, coupled to E. coli YqhD/NADPH
Source text: as §1, §2, §3

[3] = substrate: O=C(O)C[C@H](O)C(=O)O; assay: purified protein, by the assay type; format: biochemical, Bacillus subtilis strain 168; settings: other: 37° C., pH 8, NAD
Source text: (§4) Ligation products were transformed into E. coli DH5α cells.

[4] = substrate: O=C(O)[C@@H](O)CCO; assay: cells, lysate or membranes named; format: biochemical, Bacillus subtilis; settings: other: 37° C., pH 8, 10 mM NAD
Experimental: (§5) Site-directed mutagenesis of the E. coli mdh and the B. subtilis mdh genes were carried out using the oligonucleotide pairs listed in Table 3 and the pET28-Ec-mdh and the pET28-Bs-mdh plasmids as the templates. Point mutations to change the amino acid sequence were introduced by PCR (Phusion 1U, HF buffer 20% (v/v), dNTPs 0.2 mM, direct and reverse primers 0.04 μM each, template plasmid 50 ng, water) using the oligonucleotide pairs listed in Table 3. Mutated genes contained a new restriction site listed in Table 3 (introduced using silent mutations) in addition to the functional mutation to facilitate identification of mutated clones. The PCR products were digested by DpnI at 37° C. for 1 h to remove template DNA, and transformed into competent E. coli DH5-alpha cells (NEB). The mutated plasmids were identified by restriction site analysis and verified to carry the desired mutations by DNA sequencing.
(§6) Mutant enzymes were expressed, purified and tested for DHB dehydrogenase activity as described in Example 1.

[5] = substrate: O=C(O)C[C@H](O)C(=O)O; assay: cells, lysate or membranes named; format: biochemical, Bacillus subtilis; settings: other: 37° C., pH 8, NAD
Experimental: as §5, §6

[6] = substrate: O=C(O)C[C@H](O)C(=O)O; assay: purified protein, by the assay type; settings: other: 37° C., pH 8, NAD
[7] = substrate: O=C(O)C[C@H](O)C(=O)O; assay: cells, lysate or membranes named; settings: other: 37° C., pH 8, NAD
[8] = substrate: O=C(O)[C@@H](O)CCO; assay: cells, lysate or membranes named; format: biochemical, Escherichia coli; settings: other: 37° C., pH 8, 10 mM NAD
Experimental: Activity of the cytosolic DHB dehydrogenases (Ec-Mdh, Bs-Mdh, Ll-LdhA) was assayed by following the DHB-dependent reduction of NAD^+.
The reaction mixture contained 60 mM Hepes (pH 8), 50 mM potassium chloride, 5 mM MgCl2, 10 mM NAD, (optionally, 5 mM fructose-1,6-bisphosphate (F16bP)) (all products from Sigma), and appropriate amounts of purified enzyme or cell extract. Reactions were started by adding 50 mM (L)-2,4-dihydroxybutyrate (Rhodia).
All enzymatic assays were carried out at 37° C. in 96-well flat bottomed microtiter plates in a final volume of 250 μL.

[9] = substrate: O=C(O)[C@@H](O)CCO; assay: purified protein, by the assay type; format: biochemical, Escherichia coli MG1655; settings: other: 37° C., pH 7, 0.06 mM DCIP
Experimental: as §4
(§7) Activity of the membrane-associated DHB dehydrogenase (Ec-LldD) was assayed by following the DHB-dependent reduction of 2,6-dichloroindophenol (DCIP). (L)-2,4-dihydroxybutyrate+DCIPox→2-oxo-4-hydroxybutyrate+DCIPred Reaction scheme 2:
(§8) Reactions were started by adding 20 mM (L)-2,4-dihydroxybutyrate (Rhodia).

[10] = substrate: C[C@H](O)C(=O)O; assay: purified protein, by the assay type; format: biochemical, Escherichia coli MG1655; settings: other: 37° C., pH 7, DCIP reduction
Experimental: as §4, §7, §8

[11] = substrate: O=C(O)[C@@H](O)CCO; assay: purified protein, by the assay type; format: biochemical, Escherichia coli; settings: other: 37° C., pH 7, 0.06 mM DCIP
Experimental: as §7, §8
(§9) Site-directed mutagenesis of the E. coli lldD gene was carried out using the oligonucleotide pairs listed in Table 5 and the pET28-Ec-lldD plasmid as the template.

[12] = substrate: C[C@H](O)C(=O)O; assay: purified protein, by the assay type; format: biochemical, Escherichia coli; settings: other: 37° C., pH 7, DCIP reduction
Experimental: as §7, §8, §9

[13] = substrate: C[C@H](O)C(=O)O; assay: purified protein, by the assay type; settings: other: 37° C., pH 8, NAD, optionally 5 mM fructose-1,6-bisphosphate

Protein | Km [7] [mM] | Km [8] [mM] | also measured
B1 |  |  | Km [1]: 2.5 mM; Km [2]: 1.5 mM
B2 |  |  | Km [3]: 2.6 mM
B3 |  |  | Km [4]: 5.4 mM; Km [5]: 6.8 mM
B4 |  |  | Km [6]: 0.56 mM
B5 | 8.5 |  | 
B6 | 11.2 | 20 | 
B7 | 10.3 | 28 | 
B8 | 2.2 | 29 | 
B9 | 12.5 | 19 | 
B10 | 0.7 | 33 | 
B11 | 8.6 | 48 | 
B12 |  |  | Km [9]: 1.31 mM; Km [10]: 0.13 mM
B13 |  |  | Km [11]: 0.85 mM; Km [12]: 0.42 mM
B14 |  |  | Km [13]: 21.2 mM
